According to article PMC9913818:
Each block holds one substance with its values, some of them ahead of it.

Columns and labels:
[1] = molecular target: Abl1 (UniProt P00519); assay: co-immunoprecipitation with anti-Abl1; details: reference: vehicle (DMSO) treated cells; sites Y1510
[2] = molecular target: Abl2 (UniProt P42684); assay: co-immunoprecipitation with anti-Abl2; details: reference: vehicle (DMSO) treated cells; sites Y1510
[3] = molecular target: Abl1 SH2 domain (UniProt P00519); assay: GST pull-down from cell lysate; details: reference: vehicle (DMSO) treated cells; sites Y1510
[4] = molecular target: Abl2 SH2 domain (UniProt P42684); assay: GST pull-down from cell lysate; details: reference: vehicle (DMSO) treated cells; sites Y1510
[5] = molecular target: GST-tagged SH2 domain of Abl1 (human) (UniProt P00519); assay: pull-down; GST-SH2 domains of Abl1 or Abl2, or GST, on glutathione-Sepharose, incubated with H1993 cell lysates for 3 h at 4 °C in Buffer A; cells treated with 100 nM crizotinib or DMSO for 24 h; Western blot for IQGAP1
[6] = molecular target: GST-tagged SH2 domain of Abl2 (human) (UniProt P42684); assay: as above
[7] = molecular target: endogenous Abl2 (H1993 cells) (human (endogenous in H1993)) (UniProt P42684); assay: co-IP; endogenous proteins from H1993 cell lysates (Buffer A: 50 mM Tris-HCl pH 7.4, 150 mM NaCl, 1% Triton X-100); IP with anti-MET, anti-IQGAP1, anti-Abl1 or anti-Abl2, controls IgG or non-immune rabbit serum; for the Abl IPs cells also treated with 100 nM crizotinib or DMSO for 24 h
[8] = molecular target: endogenous Abl1 (H1993 cells) (human (endogenous in H1993)) (UniProt P00519); assay: as above
[9] = molecular target: Abl1 SH2 domain (UniProt P00519); assay: SH2 domain microarray probed with fluorescent peptide; details: reference: unphosphorylated Tyr1510 peptide; sites Y1510
[10] = molecular target: Abl2 SH2 domain (UniProt P42684); assay: as above; details: reference: unphosphorylated Tyr1510 peptide; sites Y1510
[11] = molecular target: GST-tagged SH2 domain of Abl1 (human) (UniProt P00519); assay: peptide or protein array; GST-tagged SH2 domains of 124 proteins and GST alone spotted in duplicate on nitrocellulose-coated slides; biotinylated IQGAP1 peptides on streptavidin-Cy3 as probes, 16 h at 4 °C in PBS-Tween with 3% milk and 3% BSA; fluorescence read
[12] = molecular target: GST-tagged SH2 domain of Abl2 (human) (UniProt P42684); assay: as above

other: percent decrease vs vehicle [1]: 84%
other: percent decrease vs vehicle [2]: 75%
other: percent decrease vs vehicle [3]: 82%
other: percent decrease vs vehicle [4]: 92%
Substance: IQGAP1 (from UniProt P46940) 100 nM crizotinib (MET inhibitor), 24 h

percent less IQGAP1 pulled down after crizotinib against DMSO [5]: 82%
percent less IQGAP1 pulled down after crizotinib against DMSO [6]: 92%
percent decrease of co-immunoprecipitated IQGAP1 after crizotinib against DMSO [7]: 75%
percent decrease of co-immunoprecipitated IQGAP1 after crizotinib against DMSO [8]: 84%
Substance: endogenous IQGAP1 (H1993 cells) (from UniProt P46940 1-1657) (natural protein)

other: array signal as percent of phosphopeptide signal [9]: gained; reference less than 0.5
other: array signal as percent of phosphopeptide signal [10]: gained; reference less than 0.5
Substance: IQGAP1 1502-1518 (from UniProt P46940) pTyr1510 peptide

percent of the binding of the tyrosine-phosphorylated peptide (array fluorescence) [11]: < 0.5%
percent of the binding of the tyrosine-phosphorylated peptide (array fluorescence) [12]: < 0.5%
Substance: biotinylated IQGAP1 peptide (amino acids 1502 to 1518) with non-phosphorylated Tyr1510 (from UniProt P46940 1502-1518)
